This passage reports Kd results from patent publication US20240301064A1 (published 2024).

The target in the assay is T1, human PD-1 (human, UniProt Q15116 25-167, limits assumed).
T1 construct: also called huPD-1
Description: BLI, antibody on AHC tip, soluble PD-1.

T1 sequence (Q15116 25-167 limits assumed): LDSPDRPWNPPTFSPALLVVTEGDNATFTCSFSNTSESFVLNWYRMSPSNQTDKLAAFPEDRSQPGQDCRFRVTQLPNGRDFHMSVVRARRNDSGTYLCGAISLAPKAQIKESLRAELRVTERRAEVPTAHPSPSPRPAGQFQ

B1: PMAB217 (bispecific antibody, human IgG1, kappa)
heavy: QVQLVQSGAEVKKPGASVKVSCKASGYTFSDHYMHWVRQAPGQGLEWMGTIAPSGGRTSYAQKFQGRVTMTRDTSTSTVYMELSSLRSEDTAVYYCAADNGHASGWLYYYGMDVWGQGTTVTVSSASTKGPSVFPLAPSSKSTSGGTAALGCLVKDYFPEPVTVSWNSGALTSGVHTFPAVLQSSGLYSLSSVVTVPSSSLGTQTYICNVNHKPSNTKVDKKVEPKSCDKTHTCPPCPAPEAAGAPSVFLFPPKPKDTLMISRTPEVTCVVVDVSHEDPEVKFNWYVDGVEVHNAKTKPREEQYNSTYRVVSVLTVLHQDWLNGKEYKCKVSNKALPAPIEKTISKAKGQPREPQVYTLPPSREEMTKNQVSLTCLVKGFYPSDIAVEWESNGQPENNYKTTPPVLDSDGSFFLYSKLTVDKSRWQQGNVFSCSVMHEALHNHYTQKSLSLSPGGGGGSGGGGSGGGGSEVQLLESGGGLVQPGGSLRLSCAASGFTFSDFWMHWVRQAPGKGLEWISYISGDSGYTNYADSVKGRFTISRDNSKNTLYLQMNSLRAEDTAVYYCARDRPYYYYMDVWGKGTTVTVSSGGGGSGGGGSGGGGSGGGGSDIQMTQSPSSLSASVGDRVTITCRASQSVSRSLAWYQQKPGKAPKLLIYAASSLQSGVPSRFSGSGSGTDFTLTISSLQPEDFATYYCQQYKSYPVTFGQGTKVEIK
light: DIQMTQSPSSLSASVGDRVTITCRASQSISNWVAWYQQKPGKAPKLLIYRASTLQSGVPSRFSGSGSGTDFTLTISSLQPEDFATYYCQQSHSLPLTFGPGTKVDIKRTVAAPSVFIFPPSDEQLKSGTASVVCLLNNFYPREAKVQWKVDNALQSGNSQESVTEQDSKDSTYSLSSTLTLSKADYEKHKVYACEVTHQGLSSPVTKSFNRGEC
The term Kd denotes the concentration at which binding is half-saturated. Read a high Kd as lower affinity. In turn, B1 had a Kd of 0.424 µM. This lies in the sub-micromolar range.

B2: PMAB201 (bispecific antibody, human IgG1, kappa)
heavy: QVQLVQSGAEVKKPGASVKVSCKASGYTFTDHYMHWVRQAPGQGLEWMGTIAPSGGRTSYAQKFQGRVTMTRDTSTSTVYMELSSLRSEDTAVYYCAADNGHASGWLYYYGMDVWGQGTTVTVSSASTKGPSVFPLAPSSKSTSGGTAALGCLVKDYFPEPVTVSWNSGALTSGVHTFPAVLQSSGLYSLSSVVTVPSSSLGTQTYICNVNHKPSNTKVDKKVEPKSCDKTHTCPPCPAPEAAGAPSVFLFPPKPKDTLMISRTPEVTCVVVDVSHEDPEVKFNWYVDGVEVHNAKTKPREEQYNSTYRVVSVLTVLHQDWLNGKEYKCKVSNKALPAPIEKTISKAKGQPREPQVYTLPPSREEMTKNQVSLTCLVKGFYPSDIAVEWESNGQPENNYKTTPPVLDSDGSFFLYSKLTVDKSRWQQGNVFSCSVMHEALHNHYTQKSLSLSPGGGGGSGGGGSGGGGSEVQLLESGGGLVQPGGSLRLSCAASGFTFSDFWMHWVRQAPGKGLEWISYISGDSGYTNYADSVKGRFTISRDNSKNTLYLQMNSLRAEDTAVYYCARDRPYYYYMDVWGKGTTVTVSSGGGGSGGGGSGGGGSGGGGSDIQMTQSPSSLSASVGDRVTITCRASQSVSRSLAWYQQKPGKAPKLLIYAASSLQSGVPSRFSGSGSGTDFTLTISSLQPEDFATYYCQQYKSYPVTFGQGTKVEIK
light: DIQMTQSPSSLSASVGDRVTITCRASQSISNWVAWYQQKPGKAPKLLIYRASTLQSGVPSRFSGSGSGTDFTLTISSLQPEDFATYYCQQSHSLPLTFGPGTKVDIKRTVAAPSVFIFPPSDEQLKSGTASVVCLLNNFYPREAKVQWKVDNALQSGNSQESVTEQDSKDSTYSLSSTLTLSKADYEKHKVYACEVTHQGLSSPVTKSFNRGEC
Molecule B2 came in with a Kd of 0.341 µM.

B3: PMAB202 (bispecific antibody, human IgG1, kappa)
heavy: QVQLVQSGAEVKKPGASVKVSCKASGYTFSSHYMHWVRQAPGQGLEWMGTIAPSGGRTSYAQKFQGRVTMTRDTSTSTVYMELSSLRSEDTAVYYCAADNGHASGWLYYYGMDVWGQGTTVTVSSASTKGPSVFPLAPSSKSTSGGTAALGCLVKDYFPEPVTVSWNSGALTSGVHTFPAVLQSSGLYSLSSVVTVPSSSLGTQTYICNVNHKPSNTKVDKKVEPKSCDKTHTCPPCPAPEAAGAPSVFLFPPKPKDTLMISRTPEVTCVVVDVSHEDPEVKFNWYVDGVEVHNAKTKPREEQYNSTYRVVSVLTVLHQDWLNGKEYKCKVSNKALPAPIEKTISKAKGQPREPQVYTLPPSREEMTKNQVSLTCLVKGFYPSDIAVEWESNGQPENNYKTTPPVLDSDGSFFLYSKLTVDKSRWQQGNVFSCSVMHEALHNHYTQKSLSLSPGGGGGSGGGGSGGGGSEVQLLESGGGLVQPGGSLRLSCAASGFTFSDFWMHWVRQAPGKGLEWISYISGDSGYTNYADSVKGRFTISRDNSKNTLYLQMNSLRAEDTAVYYCARDRPYYYYMDVWGKGTTVTVSSGGGGSGGGGSGGGGSGGGGSDIQMTQSPSSLSASVGDRVTITCRASQSVSRSLAWYQQKPGKAPKLLIYAASSLQSGVPSRFSGSGSGTDFTLTISSLQPEDFATYYCQQYKSYPVTFGQGTKVEIK
light: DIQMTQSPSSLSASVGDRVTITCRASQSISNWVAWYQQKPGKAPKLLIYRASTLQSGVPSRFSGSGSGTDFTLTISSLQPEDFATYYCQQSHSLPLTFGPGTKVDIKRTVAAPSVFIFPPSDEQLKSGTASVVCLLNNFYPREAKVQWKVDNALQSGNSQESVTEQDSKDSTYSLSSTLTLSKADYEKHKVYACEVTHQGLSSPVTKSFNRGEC
As for B3, the Kd came out at 0.755 µM.
